B1: Acetylcholine receptor subunit gamma (Homo sapiens), P07510-2 (parent)
chain: MHGGQGPLLLLLLLAVCLGAQGRNQEERLLADLMQNYDPNLRPAERDSDVVNVSLKLTLTNLISLNEREEALTTNVWIEMQWCDYRLRWDPRDYEGLWVLRVPSTMVWRPDIVLENKSQTYSTNEIDLQLSQEDGQTIEWIFIDPEAFTENGEWAIQHRPAKMLLDPAAPAQEAGHQKVVFYLLIQRKPLFYVINIIAPCVLISSVAILIHFLPAKAGGQKCTVAINVLLAQTVFLFLVAKKVPETSQAVPLISKYLTFLLVVTILIVVNAVVVLNVSLRSPHTHSMARGVRKVFLRLLPQLLRMHVRPLAPAAVQDTQSRLQNGSSGWSITTGEEVALCLPRSELLFQQWQRQGLVAAALEKLEKGPELGLSQFCGSLKQAAPAIQACVEACNLIACARHQQSHFDNGNEEWFLVGRVLDRVCFLAMLSLFICGTAGIFLMAHYNRVPALPFPGDPRPYLPSPD
B2: SWI/SNF-related matrix-associated actin-dependent regulator of chromatin subfamily A member 2 (Homo sapiens), P51531-1 (parent)
chain: MSTPTDPGAMPHPGPSPGPGPSPGPILGPSPGPGPSPGSVHSMMGPSPGPPSVSHPMPTMGSTDFPQEGMHQMHKPIDGIHDKGIVEDIHCGSMKGTGMRPPHPGMGPPQSPMDQHSQGYMSPHPSPLGAPEHVSSPMSGGGPTPPQMPPSQPGALIPGDPQAMSQPNRGPSPFSPVQLHQLRAQILAYKMLARGQPLPETLQLAVQGKRTLPGLQQQQQQQQQQQQQQQQQQQQQQQPQQQPPQPQTQQQQQPALVNYNRPSGPGPELSGPSTPQKLPVPAPGGRPSPAPPAAAQPPAAAVPGPSVPQPAPGQPSPVLQLQQKQSRISPIQKPQGLDPVEILQEREYRLQARIAHRIQELENLPGSLPPDLRTKATVELKALRLLNFQRQLRQEVVACMRRDTTLETALNSKAYKRSKRQTLREARMTEKLEKQQKIEQERKRRQKHQEYLNSILQHAKDFKEYHRSVAGKIQKLSKAVATWHANTEREQKKETERIEKERMRRLMAEDEEGYRKLIDQKKDRRLAYLLQQTDEYVANLTNLVWEHKQAQAAKEKKKRRRRKKKAEENAEGGESALGPDGEPIDESSQMSDLPVKVTHTETGKVLFGPEAPKASQLDAWLEMNPGYEVAPRSDSEESDSDYEEEDEEEESSRQETEEKILLDPNSEEVSEKDAKQIIETAKQDVDDEYSMQYSARGSQSYYTVAHAISERVEKQSALLINGTLKHYQLQGLEWMVSLYNNNLNGILADEMGLGKTIQTIALITYLMEHKRLNGPYLIIVPLSTLSNWTYEFDKWAPSVVKISYKGTPAMRRSLVPQLRSGKFNVLLTTYEYIIKDKHILAKIRWKYMIVDEGHRMKNHHCKLTQVLNTHYVAPRRILLTGTPLQNKLPELWALLNFLLPTIFKSCSTFEQWFNAPFAMTGERVDLNEEETILIIRRLHKVLRPFLLRRLKKEVESQLPEKVEYVIKCDMSALQKILYRHMQAKGILLTDGSEKDKKGKGGAKTLMNTIMQLRKICNHPYMFQHIEESFAEHLGYSNGVINGAELYRASGKFELLDRILPKLRATNHRVLLFCQMTSLMTIMEDYFAFRNFLYLRLDGTTKSEDRAALLKKFNEPGSQYFIFLLSTRAGGLGLNLQAADTVVIFDSDWNPHQDLQAQDRAHRIGQQNEVRVLRLCTVNSVEEKILAAAKYKLNVDQKVIQAGMFDQKSSSHERRAFLQAILEHEEENEEEDEVPDDETLNQMIARREEEFDLFMRMDMDRRREDARNPKRKPRLMEEDELPSWIIKDDAEVERLTCEEEEEKIFGRGSRQRRDVDYSDALTEKQWLRAIEDGNLEEMEEEVRLKKRKRRRNVDKDPAKEDVEKAKKRRGRPPAEKLSPNPPKLTKQMNAIIDTVINYKDRCNVEKVPSNSQLEIEGNSSGRQLSEVFIQLPSRKELPEYYELIRKPVDFKKIKERIRNHKYRSLGDLEKDVMLLCHNAQTFNLEGSQIYEDSIVLQSVFKSARQKIAKEEESEDESNEEEEEEDEEESESEAKSVKVKIKLNKKDDKGRDKGKGKKRPNRGKAKPVVSDFDSDEEQDEREQSEGSGTDDE
B3: von Hippel-Lindau disease tumor suppressor (Homo sapiens), P40337-2 (parent)
chain: MPRRAENWDEAEVGAEEAGVEEYGPEEDGGEESGAEESGPEESGPEELGAEEEMEAGRPRPVLRSVNSREPSQVIFCNRSPRVVLPVWLNFDGEPQPYPTLPPGTGRRIHSYRVYTLKERCLQVVRSLVKPENYRRLDIVRSLYEDLEDHPNVQKDLERLTQERIAHQRMGD
B4: Sulfite oxidase, mitochondrial (Homo sapiens), P51687 (parent)
chain: MLLLHRAVVLRLQQACRLKSIPSRICIQACSTNDSFQPQRPSLTFSGDNSSTQGWRVMGTLLGLGAVLAYQDHRCRAAQESTHIYTKEEVSSHTSPETGIWVTLGSEVFDVTEFVDLHPGGPSKLMLAAGGPLEPFWALYAVHNQSHVRELLAQYKIGELNPEDKVAPTVETSDPYADDPVRHPALKVNSQRPFNAEPPPELLTENYITPNPIFFTRNHLPVPNLDPDTYRLHVVGAPGGQSLSLSLDDLHNFPRYEITVTLQCAGNRRSEMTQVKEVKGLEWRTGAISTARWAGARLCDVLAQAGHQLCETEAHVCFEGLDSDPTGTAYGASIPLARAMDPEAEVLLAYEMNGQPLPRDHGFPVRVVVPGVVGARHVKWLGRVSVQPEESYSHWQRRDYKGFSPSVDWETVDFDSAPSIQELPVQSAITEPRDGETVESGEVTIKGYAWSGGGRAVIRVDVSLDGGLTWQVAKLDGEEQRPRKAWAWRLWQLKAPVPAGQKELNIVCKAVDDGYNVQPDTVAPIWNLRGVLSNAWHRVHVYVSP
B5: Acetylcholine receptor subunit gamma (Homo sapiens), P07510-2 (parent)
chain: B1 chain
partner: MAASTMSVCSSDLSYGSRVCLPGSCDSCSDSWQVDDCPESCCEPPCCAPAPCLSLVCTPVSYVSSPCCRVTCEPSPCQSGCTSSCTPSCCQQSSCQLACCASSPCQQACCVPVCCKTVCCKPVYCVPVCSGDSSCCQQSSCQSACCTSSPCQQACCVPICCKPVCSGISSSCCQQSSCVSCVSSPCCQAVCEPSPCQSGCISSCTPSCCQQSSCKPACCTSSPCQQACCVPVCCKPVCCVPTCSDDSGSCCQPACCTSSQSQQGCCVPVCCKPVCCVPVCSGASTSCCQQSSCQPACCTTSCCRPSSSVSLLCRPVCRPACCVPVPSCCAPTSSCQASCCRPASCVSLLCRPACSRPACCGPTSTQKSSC
B6: Beta-crystallin A4 (Homo sapiens), P53673 (parent)
chain: MTLQCTKSAGPWKMVVWDEDGFQGRRHEFTAECPSVLELGFETVRSLKVLSGAWVGFEHAGFQGQQYILERGEYPSWDAWGGNTAYPAERLTSFRPAACANHRDSRLTIFEQENFLGKKGELSDDYPSLQAMGWEGNEVGSFHVHSGAWVCSQFPGYRGFQYVLECDHHSGDYKHFREWGSHAPTFQVQSIRRIQQ
partner: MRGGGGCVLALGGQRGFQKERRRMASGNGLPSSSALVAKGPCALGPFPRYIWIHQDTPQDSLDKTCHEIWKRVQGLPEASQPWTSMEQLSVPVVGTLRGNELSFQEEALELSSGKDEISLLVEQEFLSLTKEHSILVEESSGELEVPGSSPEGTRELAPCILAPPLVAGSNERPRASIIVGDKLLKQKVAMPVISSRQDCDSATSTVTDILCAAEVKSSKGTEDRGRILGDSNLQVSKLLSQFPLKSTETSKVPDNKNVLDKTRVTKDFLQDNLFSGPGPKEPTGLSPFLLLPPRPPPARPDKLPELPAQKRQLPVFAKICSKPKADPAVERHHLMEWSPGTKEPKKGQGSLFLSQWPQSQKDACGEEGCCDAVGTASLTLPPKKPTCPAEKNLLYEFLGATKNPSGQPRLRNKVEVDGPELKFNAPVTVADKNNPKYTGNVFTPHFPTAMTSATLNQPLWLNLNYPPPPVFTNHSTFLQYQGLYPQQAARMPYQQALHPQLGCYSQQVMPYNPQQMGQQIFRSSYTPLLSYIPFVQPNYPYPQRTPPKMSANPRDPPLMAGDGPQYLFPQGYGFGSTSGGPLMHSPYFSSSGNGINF
B7: Progranulin (Homo sapiens), P28799 (parent)
chain: MWTLVSWVALTAGLVAGTRCPDGQFCPVACCLDPGGASYSCCRPLLDKWPTTLSRHLGGPCQVDAHCSAGHSCIFTVSGTSSCCPFPEAVACGDGHHCCPRGFHCSADGRSCFQRSGNNSVGAIQCPDSQFECPDFSTCCVMVDGSWGCCPMPQASCCEDRVHCCPHGAFCDLVHTRCITPTGTHPLAKKLPAQRTNRAVALSSSVMCPDARSRCPDGSTCCELPSGKYGCCPMPNATCCSDHLHCCPQDTVCDLIQSKCLSKENATTDLLTKLPAHTVGDVKCDMEVSCPDGYTCCRLQSGAWGCCPFTQAVCCEDHIHCCPAGFTCDTQKGTCEQGPHQVPWMEKAPAHLSLPDPQALKRDVPCDNVSSCPSSDTCCQLTSGEWGCCPIPEAVCCSDHQHCCPQGYTCVAEGQCQRGSEIVAGLEKMPARRASLSHPRDIGCDQHTSCPVGQTCCPSLGGSWACCQLPHAVCCEDRQHCCPAGYTCNVKARSCEKEVVSAQPATFLARSPHVGVKDVECGEGHFCHDNQTCCRDNRQGWACCPYRQGVCCADRRHCCPAGFRCAARGTKCLRREAPRWDAPLRDPALRQLL
partner: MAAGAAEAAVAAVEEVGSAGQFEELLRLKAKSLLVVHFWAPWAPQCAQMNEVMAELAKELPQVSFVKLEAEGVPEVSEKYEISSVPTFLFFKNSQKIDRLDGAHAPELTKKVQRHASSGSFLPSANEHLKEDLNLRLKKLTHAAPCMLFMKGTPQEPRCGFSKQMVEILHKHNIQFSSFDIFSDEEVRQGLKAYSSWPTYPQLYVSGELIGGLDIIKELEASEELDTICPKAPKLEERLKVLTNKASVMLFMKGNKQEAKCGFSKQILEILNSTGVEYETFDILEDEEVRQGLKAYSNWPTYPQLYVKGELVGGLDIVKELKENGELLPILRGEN

Variants of: B1
Settings: with mdfi_human MDFI
Target sequence in this assay (Q99750 whole entry): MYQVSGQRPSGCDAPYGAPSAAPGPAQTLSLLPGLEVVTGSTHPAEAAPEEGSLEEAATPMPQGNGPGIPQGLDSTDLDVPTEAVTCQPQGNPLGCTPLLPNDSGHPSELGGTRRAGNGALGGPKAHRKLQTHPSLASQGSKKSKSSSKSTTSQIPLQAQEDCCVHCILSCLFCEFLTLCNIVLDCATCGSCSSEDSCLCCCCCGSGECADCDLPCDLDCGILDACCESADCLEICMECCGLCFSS

Row | Variant | effect of a mutation on the interaction
1 | R86C | disrupting interaction strength

Variants of: B1
Settings: with nt2na_human NOTCH2NLA

Row | Variant | effect of a mutation on the interaction
2 | R86C | disrupting interaction strength

Variants of: B1
Settings: with k1h1_human KRT31, Q15323
k1h1_human KRT31, Q15323, sequence (Q15323 whole entry): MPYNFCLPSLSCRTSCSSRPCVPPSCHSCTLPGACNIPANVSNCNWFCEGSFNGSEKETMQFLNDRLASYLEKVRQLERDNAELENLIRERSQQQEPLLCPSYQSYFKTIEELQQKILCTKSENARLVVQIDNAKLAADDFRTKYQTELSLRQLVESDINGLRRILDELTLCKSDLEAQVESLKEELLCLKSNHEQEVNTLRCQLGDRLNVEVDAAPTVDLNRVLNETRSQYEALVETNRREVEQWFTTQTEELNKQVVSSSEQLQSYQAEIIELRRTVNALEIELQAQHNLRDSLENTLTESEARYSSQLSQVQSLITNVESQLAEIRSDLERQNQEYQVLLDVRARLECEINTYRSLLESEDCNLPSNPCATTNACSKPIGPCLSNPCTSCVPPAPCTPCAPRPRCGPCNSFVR

Row | Variant | effect of a mutation on the interaction
3 | R86C | disrupting interaction strength

Variants of: B1
Settings: with meox2_human MEOX2, P50222
meox2_human MEOX2, P50222, sequence (P50222 whole entry): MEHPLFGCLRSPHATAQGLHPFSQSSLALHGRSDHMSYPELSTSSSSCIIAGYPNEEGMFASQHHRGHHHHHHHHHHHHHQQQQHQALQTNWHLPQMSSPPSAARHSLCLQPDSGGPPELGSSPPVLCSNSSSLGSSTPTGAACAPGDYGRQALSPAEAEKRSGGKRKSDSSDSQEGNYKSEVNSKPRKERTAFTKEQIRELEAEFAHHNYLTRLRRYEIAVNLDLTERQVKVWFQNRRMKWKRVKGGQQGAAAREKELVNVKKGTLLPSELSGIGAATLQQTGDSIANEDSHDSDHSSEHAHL

Row | Variant | effect of a mutation on the interaction
4 | R86C | disrupting interaction strength

Variants of: B2
Settings: with sdcb1_human SDCBP

Row | Variant | effect of a mutation on the interaction
5 | D1546E | with no effect

Variants of: B2
Settings: with sdcb1_human SDCBP
Remark: another data set of the same source

Row | Variant | effect of a mutation on the interaction
6 | D1546E | with no effect

Variants of: B3
Settings: with mdfi_human MDFI
Target sequence in this assay (Q99750 whole entry): as the sequence (Q99750 whole entry) above

Row | Variant | effect of a mutation on the interaction
7 | S38P | disrupting interaction strength
8 | S111I | disrupting interaction strength

Variants of: B4
Settings: with nup62_human NUP62, P37198
nup62_human NUP62, P37198, sequence (P37198 whole entry): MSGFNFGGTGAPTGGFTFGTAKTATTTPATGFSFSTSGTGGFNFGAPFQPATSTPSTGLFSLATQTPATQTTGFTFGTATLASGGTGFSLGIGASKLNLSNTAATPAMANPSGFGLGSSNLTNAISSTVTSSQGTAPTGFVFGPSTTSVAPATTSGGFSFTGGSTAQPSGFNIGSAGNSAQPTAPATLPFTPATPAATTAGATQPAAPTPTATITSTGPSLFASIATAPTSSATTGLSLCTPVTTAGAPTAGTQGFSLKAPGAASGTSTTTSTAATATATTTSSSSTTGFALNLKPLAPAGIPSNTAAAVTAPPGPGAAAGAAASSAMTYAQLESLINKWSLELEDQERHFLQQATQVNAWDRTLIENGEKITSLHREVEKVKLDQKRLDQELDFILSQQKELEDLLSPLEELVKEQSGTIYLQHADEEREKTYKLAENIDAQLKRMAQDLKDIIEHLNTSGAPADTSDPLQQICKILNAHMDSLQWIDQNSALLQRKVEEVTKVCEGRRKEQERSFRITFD

Row | Variant | effect of a mutation on the interaction
9 | Q396R | with no effect
10 | W450R | disrupting interaction strength

Variants of: B5
Settings: with kr107_human KRTAP10-7, P60409

Row | Variant | effect of a mutation on the interaction
11 | R187C | disrupting interaction strength
12 | R86C | disrupting interaction strength
13 | V107G | disrupting interaction strength

Variants of: B6
Settings: with ca094_human C1orf94, Q6P1W5

Row | Variant | effect of a mutation on the interaction
14 | V36M | disrupting interaction strength
15 | L69P | disrupting interaction strength
16 | F94S | disrupting interaction strength

Variants of: B7
Settings: with glrx3_human GLRX3, O76003

Row | Variant | effect of a mutation on the interaction
17 | P451L | disrupting interaction strength
18 | P248L | with no effect
19 | A9D | disrupting interaction strength
20 | R432C | disrupting interaction strength

Reference: IntAct's records for PubMed 25910212
